16 molecules from US20220339270A1 (published 2022) can be followed below.

B1: IPN002 scFv-HA expressed from TAU_ITR151 (CAG, LH, (G4S)2) (scFv)
scFv: DVLMTQTPLSLPVSLGDQASISCKSSQSIVHSNGNTYLEWYLQKPGQSPKLLVYKVSNRFSGVPDRFSGSGSGTDFTLKISRVEAEDLGTYYCFQGSLVPWAFGGGTKLEIKGGGGSGGGGSEVHLVESGGALVKPGGSLKLSCAASGFSFSKYGMSWVRQTPDKRLEWVATISSSGSRTYYPDSVKGQFTISRDNAKNTLYLQMSSLKSEDTAMYYCSISWDGAMDYWGQGTSVTVSS
notes: also called CAG-IPN004-LH-G4S2
B2: IPN002 scFv-HA expressed from TAU_ITR140 (CAG, HL, (G4S)4) (scFv)
scFv: EVHLVESGGALVKPGGSLKLSCAASGFSFSKYGMSWVRQTPDKRLEWVATISSSGSRTYYPDSVKGQFTISRDNAKNTLYLQMSSLKSEDTAMYYCSISWDGAMDYWGQGTSVTVSSGGGGSGGGGSGGGGSGGGGSDVLMTQTPLSLPVSLGDQASISCKSSQSIVHSNGNTYLEWYLQKPGQSPKLLVYKVSNRFSGVPDRFSGSGSGTDFTLKISRVEAEDLGTYYCFQGSLVPWAFGGGTKLEIK
notes: also called CAG-IPN008-HL-G4S4
B3: IPN002 scFv-HA expressed from TAU_ITR137 (CAG, HL, G4S) (scFv)
scFv: EVHLVESGGALVKPGGSLKLSCAASGFSFSKYGMSWVRQTPDKRLEWVATISSSGSRTYYPDSVKGQFTISRDNAKNTLYLQMSSLKSEDTAMYYCSISWDGAMDYWGQGTSVTVSSGGGGSDVLMTQTPLSLPVSLGDQASISCKSSQSIVHSNGNTYLEWYLQKPGQSPKLLVYKVSNRFSGVPDRFSGSGSGTDFTLKISRVEAEDLGTYYCFQGSLVPWAFGGGTKLEIK
notes: also called CAG-IPN002-HL-G4S; H(G4S)L
B4: IPN002 scFv-HA expressed from TAU_ITR142 (CAG, HL, (G4S)6) (scFv)
scFv: EVHLVESGGALVKPGGSLKLSCAASGFSFSKYGMSWVRQTPDKRLEWVATISSSGSRTYYPDSVKGQFTISRDNAKNTLYLQMSSLKSEDTAMYYCSISWDGAMDYWGQGTSVTVSSGGGGSGGGGSGGGGSGGGGSGGGGSGGGGSDVLMTQTPLSLPVSLGDQASISCKSSQSIVHSNGNTYLEWYLQKPGQSPKLLVYKVSNRFSGVPDRFSGSGSGTDFTLKISRVEAEDLGTYYCFQGSLVPWAFGGGTKLEIK
notes: also called CAG-IPN0011-HL-G4S6
B5: IPN002 F(ab')2_hIgG3_3hinge expressed from TAU_ITR122 (CBA, hGbin, HF.T2AL) (F(ab')2)
VH: EVHLVESGGALVKPGGSLKLSCAASGFSFSKYGMSWVRQTPDKRLEWVATISSSGSRTYYPDSVKGQFTISRDNAKNTLYLQMSSLKSEDTAMYYCSISWDGAMDYWGQGTSVTVSS
VL: DVLMTQTPLSLPVSLGDQASISCKSSQSIVHSNGNTYLEWYLQKPGQSPKLLVYKVSNRFSGVPDRFSGSGSGTDFTLKISRVEAEDLGTYYCFQGSLVPWAFGGGTKLEIK
B6: IPN002 scFv-HA expressed from TAU_ITR141 (CAG, HL, (G4S)5) (scFv)
scFv: EVHLVESGGALVKPGGSLKLSCAASGFSFSKYGMSWVRQTPDKRLEWVATISSSGSRTYYPDSVKGQFTISRDNAKNTLYLQMSSLKSEDTAMYYCSISWDGAMDYWGQGTSVTVSSGGGGSGGGGSGGGGSGGGGSGGGGSDVLMTQTPLSLPVSLGDQASISCKSSQSIVHSNGNTYLEWYLQKPGQSPKLLVYKVSNRFSGVPDRFSGSGSGTDFTLKISRVEAEDLGTYYCFQGSLVPWAFGGGTKLEIK
notes: also called CAG-IPN0010-HL-G4S5
B7: IPN002 scFv-HA expressed from TAU_ITR143 (CAG, HL, (G4S)8) (scFv)
scFv: EVHLVESGGALVKPGGSLKLSCAASGFSFSKYGMSWVRQTPDKRLEWVATISSSGSRTYYPDSVKGQFTISRDNAKNTLYLQMSSLKSEDTAMYYCSISWDGAMDYWGQGTSVTVSSGGGGSGGGGSGGGGSGGGGSGGGGSGGGGSGGGGSGGGGSDVLMTQTPLSLPVSLGDQASISCKSSQSIVHSNGNTYLEWYLQKPGQSPKLLVYKVSNRFSGVPDRFSGSGSGTDFTLKISRVEAEDLGTYYCFQGSLVPWAFGGGTKLEIK
notes: also called CAG-IPN0012-HL-G4S8
B8: IPN002 scFv-HA expressed from TAU_ITR139 (CAG, HL, (G4S)3) (scFv)
scFv: EVHLVESGGALVKPGGSLKLSCAASGFSFSKYGMSWVRQTPDKRLEWVATISSSGSRTYYPDSVKGQFTISRDNAKNTLYLQMSSLKSEDTAMYYCSISWDGAMDYWGQGTSVTVSSGGGGSGGGGSGGGGSDVLMTQTPLSLPVSLGDQASISCKSSQSIVHSNGNTYLEWYLQKPGQSPKLLVYKVSNRFSGVPDRFSGSGSGTDFTLKISRVEAEDLGTYYCFQGSLVPWAFGGGTKLEIK
notes: also called CAG-IPN003-HL-G4S3; H(G4S)3L
B9: IPN002 scFv-HA expressed from TAU_ITR152 (CAG, LH, (G4S)3) (scFv)
scFv: DVLMTQTPLSLPVSLGDQASISCKSSQSIVHSNGNTYLEWYLQKPGQSPKLLVYKVSNRFSGVPDRFSGSGSGTDFTLKISRVEAEDLGTYYCFQGSLVPWAFGGGTKLEIKGGGGSGGGGSGGGGSEVHLVESGGALVKPGGSLKLSCAASGFSFSKYGMSWVRQTPDKRLEWVATISSSGSRTYYPDSVKGQFTISRDNAKNTLYLQMSSLKSEDTAMYYCSISWDGAMDYWGQGTSVTVSS
notes: also called CAG-IPN005-LH-G4S3; L(G4S)3H
B10: IPN002 scFv-HA expressed from TAU_ITR154 (CAG, LH, (G4S)5) (scFv)
scFv: DVLMTQTPLSLPVSLGDQASISCKSSQSIVHSNGNTYLEWYLQKPGQSPKLLVYKVSNRFSGVPDRFSGSGSGTDFTLKISRVEAEDLGTYYCFQGSLVPWAFGGGTKLEIKGGGGSGGGGSGGGGSGGGGSGGGGSEVHLVESGGALVKPGGSLKLSCAASGFSFSKYGMSWVRQTPDKRLEWVATISSSGSRTYYPDSVKGQFTISRDNAKNTLYLQMSSLKSEDTAMYYCSISWDGAMDYWGQGTSVTVSS
notes: also called CAG-IPN007-LH-G4S5
B11: IPN002 scFv-HA expressed from TAU_ITR155 (CAG, LH, (G4S)6) (scFv)
scFv: DVLMTQTPLSLPVSLGDQASISCKSSQSIVHSNGNTYLEWYLQKPGQSPKLLVYKVSNRFSGVPDRFSGSGSGTDFTLKISRVEAEDLGTYYCFQGSLVPWAFGGGTKLEIKGGGGSGGGGSGGGGSGGGGSGGGGSGGGGSEVHLVESGGALVKPGGSLKLSCAASGFSFSKYGMSWVRQTPDKRLEWVATISSSGSRTYYPDSVKGQFTISRDNAKNTLYLQMSSLKSEDTAMYYCSISWDGAMDYWGQGTSVTVSS
notes: also called CAG-IPN0014-LH-G4S6
B12: IPN002 scFv-HA expressed from TAU_ITR150 (CAG, LH, G4S) (scFv)
scFv: DVLMTQTPLSLPVSLGDQASISCKSSQSIVHSNGNTYLEWYLQKPGQSPKLLVYKVSNRFSGVPDRFSGSGSGTDFTLKISRVEAEDLGTYYCFQGSLVPWAFGGGTKLEIKGGGGSEVHLVESGGALVKPGGSLKLSCAASGFSFSKYGMSWVRQTPDKRLEWVATISSSGSRTYYPDSVKGQFTISRDNAKNTLYLQMSSLKSEDTAMYYCSISWDGAMDYWGQGTSVTVSS
notes: also called CAG-IPN004-LH-G4S; L(G4S)H
B13: IPN002 scFv-HA expressed from TAU_ITR153 (CAG, LH, (G4S)4) (scFv)
scFv: DVLMTQTPLSLPVSLGDQASISCKSSQSIVHSNGNTYLEWYLQKPGQSPKLLVYKVSNRFSGVPDRFSGSGSGTDFTLKISRVEAEDLGTYYCFQGSLVPWAFGGGTKLEIKGGGGSGGGGSGGGGSGGGGSEVHLVESGGALVKPGGSLKLSCAASGFSFSKYGMSWVRQTPDKRLEWVATISSSGSRTYYPDSVKGQFTISRDNAKNTLYLQMSSLKSEDTAMYYCSISWDGAMDYWGQGTSVTVSS
notes: also called CAG-IPN006-LH-G4S4
B14: anti-tau antibody MC1 expressed from viral genome construct MC1HIRESL (TAU_ITR75; SEQ ID NO: 2064) (antibody, mouse IgG1, kappa, V domains shown)
VH: QVQLQQSGAELMKPGASVKISCKATGYTFSNYWIEWVKQRPGHGLEWIGEILPGSDSIKYNENFKGKATFTADTSSNTAYMQLSSLTSEDSAVYYCARRGNYPDYWGQGTTLTVSS
VL: DVVMTQTPLSLPVSLGDQASISCRSSQSLVHSNGNTYLHWYLQKPGQSPKLLIYKVSNRFSGVPDRFSGSGSGTDFTLKISRVEAEDLGVYFCSQSTHVPLTFGAGTKLELKR
B15: anti-tau antibody MC1 expressed from viral genome construct MC1LF2AH (TAU_ITR79; SEQ ID NO: 2068) (antibody, V domains shown)
VH: B14 VH
VL: B14 VL
B16: anti-tau antibody MC1 expressed from viral genome construct MC1LIRESH (TAU_ITR80; SEQ ID NO: 2069) (antibody, mouse IgG1, kappa, V domains shown)
VH: B14 VH
VL: B14 VL

The target in the first assay is T1, wild-type tau (441 amino acids; tau441; NP_005901.2) (human, UniProt P10636 1-758).
T1 construct: Unphosphorylated recombinant tau441 used in the wild-type tau ELISA; also called wt tau441; wtTau
T1 sequence (P10636 other isoform, or with tags, fused parts or gaps limits assumed): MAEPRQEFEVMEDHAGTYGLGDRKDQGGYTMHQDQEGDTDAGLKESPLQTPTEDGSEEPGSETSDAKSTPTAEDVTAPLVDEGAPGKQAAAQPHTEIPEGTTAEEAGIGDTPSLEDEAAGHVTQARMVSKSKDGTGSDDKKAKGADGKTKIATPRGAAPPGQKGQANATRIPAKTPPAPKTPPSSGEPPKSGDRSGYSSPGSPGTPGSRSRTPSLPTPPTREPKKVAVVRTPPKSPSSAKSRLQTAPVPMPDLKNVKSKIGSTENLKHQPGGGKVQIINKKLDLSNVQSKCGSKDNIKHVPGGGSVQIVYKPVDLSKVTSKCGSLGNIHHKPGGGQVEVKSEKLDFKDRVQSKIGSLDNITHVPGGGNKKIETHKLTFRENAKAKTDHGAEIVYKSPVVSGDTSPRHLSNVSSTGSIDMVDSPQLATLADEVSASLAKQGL
In words: wild-type tau ELISA, 293 cell supernatant. On the technique in general: ELISA stands for enzyme-linked immunosorbent assay.
As to B1, the binding result was “binds”.

As for B2, the binding result is “binds”.

For the molecule B3, the binding result is recorded as “binds”.

Consider B4, for which the binding result is reported as “binds”.

As for B5, the binding result is “binds”.

In the case of B6, the binding result is “binds”.

As for B7, the binding result was “binds”.

On to B8, for which the binding result is given as “binds”.

Turning to B9, the binding result is “binds”.

Take B10: the binding result is on record as “binds”.

As to B11, the binding result was “binds”.

Regarding B12, the binding result was “binds”.

With B13, the binding result is on record as “binds”.

For another assay, the target named is T2, extracellular tau in the form of paired helical filaments (ePHF tau) (UniProt P10636-8 1-441, limits assumed).
T2 construct: Aggregated, hyperphosphorylated tau preparation; not a single defined polypeptide
T2 sequence (P10636 other isoform, or with tags, fused parts or gaps limits assumed): as above
The assay is described as follows: ePHF tau ELISA, ePHF coated; antibody at 0.7 ng/ml; anti-mouse-HRP.
As for B14, the OD450 turned out to be 0.1 OD450.

In the case of B15, the OD450 came to 0.1 OD450.

As to B16, the OD450 worked out at 0.1 OD450.

Another assay addresses T2, extracellular tau in the form of paired …. In words: ePHF tau ELISA, ePHF coated; antibody at 2.1 ng/ml; anti-mouse-HRP.
As for B14, the OD450 worked out at 0.1 OD450.

The molecule B15 yielded an OD450 of 0.1 OD450.

For the molecule B16, the OD450 worked out at 0.1 OD450.

The target is the same in another assay. In words: ePHF tau ELISA, ePHF coated; antibody at 6.2 ng/ml; anti-mouse-HRP.
As to B14, the OD450 was found to be 0.1 OD450.

In turn, B15 gave an OD450 of 0.1 OD450.

The molecule B16 had an OD450 of 0.1 OD450.

The next assay shares this target. In words: ePHF tau ELISA, ePHF coated; antibody at 18.5 ng/ml; anti-mouse-HRP.
B14: the OD450 was 0.1 OD450.

B15: the OD450 turned out to be 0.2 OD450.

In turn, B16 registered an OD450 of 0.2 OD450.

The target is the same in another assay. In words: ePHF tau ELISA, ePHF coated; antibody at 55.6 ng/ml; anti-mouse-HRP.
Molecule B14 had an OD450 of 0.2 OD450.

The molecule B15 came in with an OD450 of 0.4 OD450.

B16 showed an OD450 of 0.3 OD450.

For a further assay the target is unchanged. The assay is described as follows: ePHF tau ELISA, ePHF coated; antibody at 166.7 ng/ml; anti-mouse-HRP.
B14 registered an OD450 of 0.3 OD450.

B15 gave an OD450 of 0.7 OD450.

Consider B16, for which the OD450 was 0.6 OD450.

For another assay the target is unchanged. In words: ePHF tau ELISA, ePHF coated; antibody at 500.0 ng/ml; anti-mouse-HRP.
With B14, the OD450 was 0.7 OD450.

Take B15: the OD450 stood at 1 OD450.

B16: the OD450 is 0.9 OD450.

The target is the same in another assay. In words: ePHF tau ELISA, ePHF coated; antibody at 1000.0 ng/ml; anti-mouse-HRP.
In turn, B14 had an OD450 of 1 OD450.

Take B15: the OD450 is 1.1 OD450.

B16: the OD450 came to 1 OD450.
